Assay results from article PMC2139957.

Experiments:
[1] = steady-state domain-selective surface biotinylation, immunoblot; conditions: glycan lost; control: ΔBS p75NTR
[2] = pulse-chase, ER-to-Golgi transport by O-glycan acquisition; conditions: glycan lost; control: native rat p75NTR

| Molecule | localisation_or_trafficking, other: percent apical [1] | localisation_or_trafficking, other: half-time of ER-to-Golgi transport [2] |
| --- | --- | --- |
| p75NTR (p75 neurotrophin receptor): N32D/ΔBS | no change, <10 vs <10 | – |
| p75NTR (p75 neurotrophin receptor): N32D (protein) parent chain: MRRAGAACSAMDRLRLLLLLILGVSSGGAKETCSTGLYTHSGECCKACNLGEGVAQPCGANQTVCEPCLDNVTFSDVVSATEPCKPCTECLGLQSMSAPCVEADDAVCRCAYGYYQDEETGHCEACSVCEVGSGLVFSCQDKQNTVCEECPEGTYSDEANHVDPCLPCTVCEDTERQLRECTPWADAECEEIPGRWIPRSTPPEGSDSTAPSTQEPEVPPEQDLVPSTVADMVTTVMGSSQPVVTRGTTDNLIPVYCSILAAVVVGLVAYIAFKRWNSCKQNKQGANSRPVNQTPPPEGEKLHSDSGISVDSQSLHDQQTHTQTASGQALKGDGNLYSSLPLTKREEVEKLLNGDTWRHLAGELGYQPEHIDSFTHEACPVRALLASWGAQDSATLDALLAALRRIQRADIVESLCSESTATSPV | – | no change, 35–40 vs 35–40 |
